For this assay, the target named is T1, VP6 fragment (VP6f), residues 147-339 (Rotavirus A, strain of the VP6 DNA …).
T1 construct: also called VP6 head domain construct
T1 chain: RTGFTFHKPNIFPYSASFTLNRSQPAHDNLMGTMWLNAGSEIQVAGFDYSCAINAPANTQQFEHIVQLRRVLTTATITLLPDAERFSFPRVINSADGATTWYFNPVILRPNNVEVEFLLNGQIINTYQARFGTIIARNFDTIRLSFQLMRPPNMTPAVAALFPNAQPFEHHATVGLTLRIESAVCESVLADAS
The assay is described as follows: HDX-MS. Particulars: both partners purified.

B1: RV6-26 Fab (Fab, V domains shown)
VH: EFQLVESGAEVKKPGASVKVSCKASGYSFTSYYVHWVREAPGEGLEWMGMINPSDGSTYYAQRFQPRVTMTRDTSTTTVFMEMSGLRSEDTAVYYCARGVVGATNEIDFWGQGTTVTVSS
VL: DIRLTQSPSSLSASVGDRVTITCRASQSISNYLNWYQKKPGQAPKLLIYAATSLQSGVPSRFSGSGSGTDFTLTISSVQPEDFATYYCQKTLRTWTFGQGTKVEIK
On to B1, for which the binding result is reported as “binds”.
